tested on: Escherichia coli TOP10; experiment: shrunken log2 fold change of peptide-encoding DNA abundance (4.5 h post-induction vs induction); higher = less antimicrobial activity (less host growth inhibition); details: time post-induction: 4.5 h; library: site-saturation at positions 5, 18, 19, 20
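Further: peptides expressed intracellularly from a pBAD plasmid library in pooled LB shake-flask culture, induced with 0.3% L-arabinose, DNA abundance read by NGS, three biological replicates, DESeq2 with apeglm shrinkage.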

Sequence	shrunken log2 fold change
RRIRSRPPRLPRPRPRPMAQPRP	0.112
RRIRARPPRLPRPRPRPWYEPRP	-0.0297
RRIRARPPRLPRPRPRPDPKPRP	0.268
RRIRCRPPRLPRPRPRPRNTPRP	0.855
RRIRARPPRLPRPRPRPVYYPRP	-0.518
RRIRQRPPRLPRPRPRPTNRPRP	0.0327
RRIRMRPPRLPRPRPRPAWMPRP	0.189
RRIRRRPPRLPRPRPRPGHTPRP	0.274
RRIRPRPPRLPRPRPRPHWCPRP	-0.159
RRIRARPPRLPRPRPRPTWCPRP	0.325
RRIRERPPRLPRPRPRPEILPRP	-0.159
RRIRWRPPRLPRPRPRPAKWPRP	0.386
RRIRRRPPRLPRPRPRPIDVPRP	-0.00284
RRIRSRPPRLPRPRPRPDVHPRP	-0.0954
RRIRCRPPRLPRPRPRPFTDPRP	-0.182
RRIRYRPPRLPRPRPRPGAMPRP	0.986
RRIRGRPPRLPRPRPRPNPLPRP	0.217
RRIRFRPPRLPRPRPRPRIKPRP	-0.168
RRIRPRPPRLPRPRPRPWCDPRP	-0.301
RRIRLRPPRLPRPRPRPAMQPRP	0.0214
RRIRSRPPRLPRPRPRPHNMPRP	-0.798
RRIRSRPPRLPRPRPRPLTAPRP	-0.0374
RRIRVRPPRLPRPRPRPNSFPRP	-0.0668
RRIRLRPPRLPRPRPRPVAPPRP	0.474
RRIRCRPPRLPRPRPRPNVRPRP	-0.000423

Sequence	shrunken log2 fold change
RRIRNRPPRLPRPRPRPFVKPRP	-0.669
RRIRLRPPRLPRPRPRPAWCPRP	0.094
RRIRERPPRLPRPRPRPRTSPRP	0.0838
RRIRPRPPRLPRPRPRPLESPRP	-0.0234
RRIRWRPPRLPRPRPRPILRPRP	-0.0505
RRIRPRPPRLPRPRPRPDFEPRP	-0.235
RRIRTRPPRLPRPRPRPDCIPRP	-0.0428
RRIRMRPPRLPRPRPRPPFCPRP	0.0505
RRIRSRPPRLPRPRPRPAVQPRP	-0.0326
RRIRLRPPRLPRPRPRPHMFPRP	-0.356
RRIRRRPPRLPRPRPRPHNLPRP	-0.176
RRIRLRPPRLPRPRPRPWPLPRP	-0.039
RRIRARPPRLPRPRPRPWIGPRP	0.15
RRIRVRPPRLPRPRPRPRFCPRP	-0.0488
RRIRIRPPRLPRPRPRPSWNPRP	-0.49
RRIRARPPRLPRPRPRPRIDPRP	0.74
RRIRMRPPRLPRPRPRPVHSPRP	0.0125
RRIRCRPPRLPRPRPRPGTHPRP	-0.243
RRIRNRPPRLPRPRPRPDFYPRP	-0.24
RRIRYRPPRLPRPRPRPQRQPRP	-0.00525
RRIRDRPPRLPRPRPRPYPAPRP	-0.15
RRIRFRPPRLPRPRPRPWPKPRP	0.125
RRIRCRPPRLPRPRPRPQKTPRP	-0.162
RRIRKRPPRLPRPRPRPNYYPRP	-0.305
RRIRQRPPRLPRPRPRPVRIPRP	-0.0391

Sequence	shrunken log2 fold change
RRIRRRPPRLPRPRPRPKTIPRP	0.0447
RRIRIRPPRLPRPRPRPFKRPRP	-0.446
RRIRPRPPRLPRPRPRPLATPRP	0.605
RRIRQRPPRLPRPRPRPWAIPRP	0.0485
RRIRIRPPRLPRPRPRPNPVPRP	0.087
RRIRVRPPRLPRPRPRPLNQPRP	-0.0183
RRIRRRPPRLPRPRPRPQYVPRP	-0.265
RRIRYRPPRLPRPRPRPEAGPRP	-0.0468
RRIRGRPPRLPRPRPRPGTNPRP	0.133
RRIRWRPPRLPRPRPRPPSPPRP	0.598
RRIRFRPPRLPRPRPRPYIPPRP	-1.8
RRIRSRPPRLPRPRPRPYWEPRP	-0.0147
RRIRIRPPRLPRPRPRPSQAPRP	-0.244
RRIRGRPPRLPRPRPRPGFFPRP	0.542
RRIRHRPPRLPRPRPRPQPGPRP	-0.0184
RRIRHRPPRLPRPRPRPYIMPRP	-0.431
RRIRTRPPRLPRPRPRPSQGPRP	0.144
RRIRPRPPRLPRPRPRPMFPPRP	0.0316
RRIRARPPRLPRPRPRPEGYPRP	0.582
RRIRERPPRLPRPRPRPAWQPRP	-0.109
RRIRSRPPRLPRPRPRPSDGPRP	-0.124
RRIRPRPPRLPRPRPRPFNRPRP	-0.436
RRIRSRPPRLPRPRPRPTNNPRP	-0.455
RRIRERPPRLPRPRPRPASPPRP	-0.165
RRIRARPPRLPRPRPRPISVPRP	-0.173
